Reference: patent US20240003906A1, “Biomarker of Fibrosis” (Nordic Bioscience A/S, priority 2020, published 2024)
Where no end group is shown, it is not given here.

Columns and labels:
[1] = target: T1, Dimeric elongated peptide CKAGGFAPYYGD x CKAGGFAPYYGD (also: homodimer linked by Cys1 disulphide, disulfide at 1, other end not in the chain); experiment: direct sandwich ELISA, NBH-242 as capture and detection antibody
T1 peptide: CKAGGFAPYYGD
Protocol: (§1) Unbound primary antibody and sample was discarded, and the wells were washed with washing buffer. Subsequently, 100 μL chemiluminescence substrate was added to the wells, plates were incubated for 3 minutes at 20° C. in the dark rotating 300 rpm. Finally, the luminescence emitted was quantified with an ELISA reader (VersaMAX; Molecular Devices, Wokingham Berkshire, UK) set to measure the luminescence at 450 nm and 650 nm. […] Unknown sample measurements were interpolated with the standard curve to obtain the concentration (ng/mL) of the CTX-III fragment.
(§2) By plotting the calculated percentage recovery, the specificity of the antibodies in the direct sandwich ELISA towards the dimeric peptides was tested.

[2] = target: T2, Dimeric selection peptide CKAGGFAPYYG x CKAGGFAPYYG (human, also: homodimer linked by Cys1 disulphide, disulfide at 1, other end not in the chain); experiment: as above
T2 construct: Synthetic dimer of two identical strands; standard of the sandwich ELISA; also called dimeric human selection peptide
T2 peptide: CKAGGFAPYYG
Protocol: as §1, §2

[3] = target: T3, Rat dimeric peptide CKSGGFSPYYG x CKSGGFSPYYG (rat, also: homodimer cross-linked by disulphide N-terminal to antibody binding site, disulfide at 1, other end not in the chain); experiment: as above
T3 construct: also called dimeric rat peptide; rat selection peptide
T3 peptide: CKSGGFSPYYG
Protocol: as §1, §2

[4] = target: T4, Dimeric truncated peptide CKAGGFAPYY x CKAGGFAPYY (also: homodimer linked by Cys1 disulphide, disulfide at 1, other end not in the chain); experiment: as above
T4 peptide: CKAGGFAPYY
Protocol: as §1, §2

[5] = target: T5, Selection peptide KAGGFAPYYG (human); experiment: indirect competitive ELISA, selection peptide competing with coated biotin-KAGGFAPYYG
T5 construct: Synthetic monomeric peptide (Genscript); also called human selection peptide
T5 peptide: KAGGFAPYYG

[6] = target: T6, Truncated peptide KAGGFAPYY; experiment: indirect competitive ELISA (final inhibition)
T6 peptide: KAGGFAPYY

[7] = target: T7, Elongated peptide KAGGFAPYYGD; experiment: indirect competitive ELISA (final inhibition)
T7 peptide: KAGGFAPYYGD

[8] = target: T8, dimeric elongated peptide (CKAGGFAPYYGD×CKAGGFAPYYGD (SEQ ID NO: 17)) (Homo sapiens, UniProt P02461); experiment: Direct sandwich ELISA specificity towards dimeric peptides; format: binding; conditions: NBH-242 as capture and detection antibody, FIG. 3
T8 construct: purchased Genscript, Piscataway, NJ, USA; host or cells: synthetic peptide
Protocol: (§3) 96-well plates precoated with streptavidin (Roche Diagnostic's, Hvidovre, Denmark, cat. No. 11940279) were coated with 100 μL of the biotinylated antibody targeting the CTX-III fragment diluted 1+100 in assay buffer (50 mM PBS, 1% BSA, 1% Tween-20, 150 mM NaCl, pH 7.4) for 30 minutes at room temperature rotating at 300 rounds-per-minute (rpm). Unbound biotinylated capture antibody was discarded, and the wells were washed with washing buffer (25 mM TRIZMA, 50 mM NaCl, 0.036% Bronidox L5, 0.1% Tween 20) using a standardized ELISA plate washing machine (BioTek® Instruments, Microplate washer, ELx405 Select CW, Winooski, USA). All samples and the detection antibody were diluted in incubation buffer (50 mM PBS, 1% BSA, 1% Tween-20, 150 mM NaCl, 5% Liquid II, pH 7.4), with the detection antibody being diluted 1+100. 20 μL of sample material and controls were incubated with 100 μL HRP labelled detection antibody targeting the CTX-III fragment, at 4° C. for 20 hours and agitated at 300 rpm. […] Finally, the luminescence emitted was quantified with an ELISA reader (VersaMAX; Molecular Devices, Wokingham Berkshire, UK) set to measure the luminescence at 450 nm and 650 nm. […]
(§4) The lower limit of detection (LLOD) was determined from 21 zero samples (i.e. incubation buffer) and calculated as the mean+3× standard deviation, whereas the upper limit of detection (ULOD) was determined from 10 measurements of the dimeric selection peptide calculated as the mean+3× standard deviation. The inter- and intra-assay variation was determined by 10 independent runs of five quality control (QC) samples with minimum three of these being healthy human plasma EDTA samples (Valley Biomedical, Winchester, VA, USA), with each run consisting of double determinations of the samples. […] Assay linearity was determined by calculating the percentage recovery (100%±20%) of a 1:6-fold dilution of healthy human plasma EDTA samples with a significant concentration, using the undiluted sample as reference. […] Subsequently, the percentage recovery between the control sample and the low or high interferent samples were calculated.

[9] = target: T9, Rat dimeric peptide (CKSGGFSPYYG×CKSGGFSPYYG) (Rattus norvegicus, UniProt P13941); experiment: as above; format: binding; conditions: NBH-242 as capture and detection antibody, FIG. 3
T9 construct: purchased Genscript, Piscataway, NJ, USA; host or cells: synthetic peptide
Protocol: as §3, §4

[10] = target: T10, dimeric truncated peptide (CKAGGFAPYY×CKAGGFAPYY (SEQ ID NO: 18)) (Homo sapiens, UniProt P02461); experiment: as above; format: binding; conditions: NBH-242 as capture and detection antibody, FIG. 3
T10 construct: purchased Genscript, Piscataway, NJ, USA; host or cells: synthetic peptide
Protocol: as §3, §4

B1: monoclonal antibody NBH-242 (antibody, mouse IgG2a, kappa, V domains shown)
VH: QVQLQQSGAELVRPGVSVKISCKGSGHTFTDHGMHWVKQSQAKSLEWIGVISTYYGDATYNQKFKGKATMTVDKSSSTAYMELARLTSEDSAIYYCARSMGGNYVGTGFAYWGQGTLVTVSA
VL: DIVMTQAAPSVPVTPGESVSISCRSSKSLLHSNGNTYLYWFLQRPGQSPQLLIYRMSNLASGVPDRFSGSGSGTAFTLRISRVEAEDVGVYYCMQHLEFPLTFGAGTKLELKR
notes: In the sandwich ELISA the antibody was biotinylated (capture) and HRP-labelled (detection); also called monoclonal NBH-242 antibody; capture antibody
binding result [1]: no binding
binding result [2]: binds
binding result [3]: no binding
binding result [4]: no binding
binding result [5]: binds
binding result [6]: no binding
binding result [7]: no binding

B2: NBH-242: neo-epitope specific antibody directed towards the C-terminal neo-epitope in the C-terminal telopeptide of type III collagen (CT-III), …-COOH (antibody)
heavy: QVQLQQSGAELVRPGVSVKISCKGSGHTFTDHGMHWVKQSQAKSLEWIGVISTYYGDATYNQKFKGKATMTVDKSSSTAYMELARLTSEDSAIYYCARSMGGNYVGTGFAYWGQGTLVTVSAAKTTAPSVYPLAPVCGDTTGSSVTLGCLVKGYFPEPVTLTWNSGSLSSGVHTFPAVLQSDLYTLSSSVTVTSSTWPSQSITCNVAHPASSTKVDKKIEPRGPTIKPCPPCKCPAPNLLGGPSVFIFPPKIKDVLMISLSPIVTCVVVDVSEDDPDVQISWFVNNVEVHTAQTQTHREDYNSTLRVVSALPIQHQDWMSGKEFKCKVNNKDLPAPIERTISKPKGSVRAPQVYVLPPPEEEMTKKQVTLTCMVTDFMPEDIYVEWTNNGKTELNYKNTEPVLDSDGSYFMYSKLRVEKKNWVERNSYSCSVVHEGLHNHHTTKSFSRTPGK
light: DIVMTQAAPSVPVTPGESVSISCRSSKSLLHSNGNTYLYWFLQRPGQSPQLLIYRMSNLASGVPDRFSGSGSGTAFTLRISRVEAEDVGVYYCMQHLEFPLTFGAGTKLELKRADAAPTVSIFPPSSEQLTSGGASVVCFLNNFYPKDINVKWKIDGSERQNGVLNSWTDQDSKDSTYSMSSTLTLTKDEYERHNSYTCEATHKTSTSPIVKSFNRNE
reactivity towards the dimeric elongated peptide [8]: no reactivity
reactivity towards the dimeric rat peptide [9]: no reactivity
reactivity towards the dimeric truncated peptide [10]: no reactivity
